± gives the standard deviation of the averaged measurements.
Test: total protein half-life in vivo (active degradation + dilution); higher = more stable protein
[1] = E. coli NCM3722 delta-clpP delta-lon delta-hslV, growth: N-lim chemostat, doubling time 6 h
[2] = E. coli NCM3722 delta-clpP, growth: N-lim chemostat, doubling time 6 h
[3] = E. coli NCM3722 delta-hslV, growth: N-lim chemostat, doubling time 6 h
[4] = E. coli NCM3722 delta-lon, growth: N-lim chemostat, doubling time 6 h
[5] = E. coli NCM3722 delta-smpB, growth: N-lim chemostat, doubling time 6 h
[6] = wild type E. coli NCM3722, growth: C-lim chemostat, doubling time 3 h
[7] = wild type E. coli NCM3722, growth: C-lim chemostat, doubling time 6 h
[8] = wild type E. coli NCM3722, growth: N-lim chemostat, doubling time 6 h
[9] = wild type E. coli NCM3722, growth: N-lim chemostat, doubling time 12 h
[10] = wild type E. coli NCM3722, growth: P-lim chemostat, doubling time 6 h
[11] = wild type E. coli NCM3722, growth: P-lim chemostat, doubling time 12 h
[12] = wild type E. coli NCM3722, growth: C-lim chemostat, doubling time 12 h

In the case of “MAELTALHTLTAQMKREGIRRLLVLSGEEGWCFEHTLKLRDALPGDWLWISPRPDAENHCSPSALQTLLGREFRHAVFDARHGFDAAAFAALSGTLKAGSWLVLLLPVWEEWENQPDADSLRWSDCPDPIATPHFVQHLKRVLTADNEAILWRQNQPFSLAHFTPRTDWYPATGAPQPEQQQLLKQLMTMPPGVAAVTAARGRGKSALAGQLISRIAGRAIVTAPAKASTDVLAQFAGEKFRFIAPDALLASDEQADWLVVDEAAAIPAPLLHQLVSRFPRTLLTTTVQGYEGTGRGFLLKFCARFPHLHRFELQQPIRWAQGCPLEKMVSEALVFDDENFTHTPQGNIVISAFEQTLWQSDPETPLKVYQLLSGAHYRTSPLDLRRMMDAPGQHFLQAAGENEIAGALWLVDEGGLSQQLSQAVWAGFRRPRGNLVAQSLAAHGNNPLAATLRGRRVSRIAVHPARQREGTGRQLIAGALQYTQDLDYLSVSFGYTGELWRFWQRCGFVLVRMGNHREASSGCYTAMALLPMSDAGKQLAEREHYRLRRDAQALAQWNGETLPVDPLNDAVLSDDDWLELAGFAFAHRPLLTSLGCLLRLLQTSELALPALRGRLQKNASDAQLCTTLKLSGRKMLLVRQREEAAQALFALNDVRTERLRDRITQWQLFH”, the “total protein half-life in vivo” value [1] is reported as 5 ± 1.1 h, the “total protein half-life in vivo” value [2] is reported as 4.59 ± 0.41 h and the “total protein half-life in vivo” value [3] is reported as 4.37 ± 0.39 h. The “total protein half-life in vivo” value [4] was 4.56 ± 0.19 h, the “total protein half-life in vivo” value [5] was 4.39 ± 0.29 h and the “total protein half-life in vivo” value [6] was 3.04 ± 0.3 h. The “total protein half-life in vivo” value [7] was 6.05 ± 0.38 h, the “total protein half-life in vivo” value [8] was 4.07 ± 1.4 h and the “total protein half-life in vivo” value [9] was 7.56 ± 0.58 h. For the same sequence, the “total protein half-life in vivo” value [10] was 6.65 ± 0.2 h and the “total protein half-life in vivo” value [11] was 12.2 ± 1.5 h.
For “MKHSVSVTCCALLVSSISLSYAAEVPSGTVLAEKQELVRHIKDEPASLDPAKAVGLPEIQVIRDLFEGLVNQNEKGEIVPGVATQWKSNDNRIWTFTLRDNAKWADGTPVTAQDFVYSWQRLVDPKTLSPFAWFAALAGINNAQAIIDGKATPDQLGVTAVDAHTLKIQLDKPLPWFVNLTANFAFFPVQKANVESGKEWTKPGNLIGNGAYVLKERVVNEKLVVVPNTHYWDNAKTVLQKVTFLPINQESAATKRYLAGDIDITESFPKNMYQKLLKDIPGQVYTPPQLGTYYYAFNTQKGPTADQRVRLALSMTIDRRLMTEKVLGTGEKPAWHFTPDVTAGFTPEPSPFEQMSQEELNAQAKTLLSAAGYGPQKPLKLTLLYNTSENHQKIAIAVASMWKKNLGVDVKLQNQEWKTYIDSRNTGNFDVIRASWVGDYNEPSTFLTLLTSTHSGNISRFNNPAYDKVLAQASTENTVKARNADYNAAEKILMEQAPIAPIYQYTNGRLIKPWLKGYPINNPEDVAYSRTMYIVKH”, the “total protein half-life in vivo” value [1] was 5.12 ± 0.18 h, the “total protein half-life in vivo” value [2] was 5.6 ± 0.17 h and the “total protein half-life in vivo” value [3] was 6.96 ± 0.47 h. For the same sequence, the “total protein half-life in vivo” value [4] was 6.18 ± 0.087 h, the “total protein half-life in vivo” value [5] was 5.63 ± 0.21 h and the “total protein half-life in vivo” value [6] was 3.26 ± 0.29 h. The “total protein half-life in vivo” value [7] was 6.21 ± 0.43 h, the “total protein half-life in vivo” value [12] was 10.1 ± 0.25 h and the “total protein half-life in vivo” value [8] was 6.41 ± 0.44 h. For the same sequence, the “total protein half-life in vivo” value [9] was 12.1 ± 0.92 h, the “total protein half-life in vivo” value [10] was 5.86 ± 0.16 h and the “total protein half-life in vivo” value [11] was 12.4 ± 1.1 h.
In the case of “MTLWINGDWITGQGASRVKRNPVSGEVLWQGNDADAAQVEQACRAARAAFPRWARLSFAERHAVVERFAALLESNKAELTAIIARETGKPRWEAATEVTAMINKIAISIKAYHVRTGEQRSEMPDGAASLRHRPHGVLAVFGPYNFPGHLPNGHIVPALLAGNTIIFKPSELTPWSGEAVMRLWQQAGLPPGVLNLVQGGRETGQALSALEDLDGLLFTGSANTGYQLHRQLSGQPEKILALEMGGNNPLIIDEVADIDAAVHLTIQSAFVTAGQRCTCARRLLLKSGAQGDAFLARLVAVSQRLTPGNWDDEPQPFIGGLISEQAAQQVVTAWQQLEAMGGRPLLAPRLLQAGTSLLTPGIIEMTGVAGVPDEEVFGPLLRVWRYDTFDEAIRMANNTRFGLSCGLVSPEREKFDQLLLEARAGIVNWNKPLTGAASTAPFGGIGASGNHRPSAWYAADYCAWPMASLESDSLTLPATLNPGLDFSDEVVR”, the “total protein half-life in vivo” value [1] is reported as 5.21 ± 0.42 h, the “total protein half-life in vivo” value [2] is reported as 3.93 ± 0.27 h and the “total protein half-life in vivo” value [3] is reported as 3.9 ± 0.23 h. For the same sequence, the “total protein half-life in vivo” value [4] was 4.05 ± 0.23 h, the “total protein half-life in vivo” value [5] was 3.9 ± 0.34 h and the “total protein half-life in vivo” value [6] was 3.01 ± 0.28 h. The “total protein half-life in vivo” value [7] was 5.5 ± 0.65 h, the “total protein half-life in vivo” value [12] was 10.05 ± 0.096 h and the “total protein half-life in vivo” value [8] was 3.67 ± 0.23 h. The “total protein half-life in vivo” value [9] was 6.26 ± 0.56 h, the “total protein half-life in vivo” value [10] was 5.78 ± 0.31 h and the “total protein half-life in vivo” value [11] was 12.1 ± 1.7 h.
In the case of “MKSKDTLKWFPAQLPEVRIILGDAVVEVAKQGRPINTRTLLDYIEGNIKKTSWLDNKELLQTAISVLKDNQNLNGKM”, the “total protein half-life in vivo” value [5] is reported as 2.39 h and the “total protein half-life in vivo” value [12] is reported as 4.92 h.
In the case of “MAYLVAVTACVSGVAHTYMAAERLEKLCLLEKWGVSIETQGALGTENRLADEDIRRADVALLITDIELAGAERFEHCRYVQCSIYAFLREPQRVMSAVRKVLSAPQQTHLILE”, the “total protein half-life in vivo” value [1] is reported as 4.98 h.
In the case of “MTITPATHAISINPATGEQLSVLPWAGADDIENALQLAAAGFRDWRETNIDYRAEKLRDIGKALRARSEEMAQMITREMGKPINQARAEVAKSANLCDWYAEHGPAMLKAEPTLVENQQAVIEYRPLGTILAIMPWNFPLWQVMRGAVPIILAGNGYLLKHAPNVMGCAQLIAQVFKDAGIPQGVYGWLNADNDGVSQMIKDSRIAAVTVTGSVRAGAAIGAQAGAALKKCVLELGGSDPFIVLNDADLELAVKAAVAGRYQNTGQVCAAAKRFIIEEGIASAFTERFVAAAAALKMGDPRDEENALGPMARFDLRDELHHQVEKTLAQGARLLLGGEKMAGAGNYYPPTVLANVTPEMTAFREEMFGPVAAITIAKDAEHALELANDSEFGLSATIFTTDETQARQMAARLECGGVFINGYCASDARVAFGGVKKSGFGRELSHFGLHEFCNIQTVWKDRI”, the “total protein half-life in vivo” value [1] is reported as 3.43 ± 0.22 h, the “total protein half-life in vivo” value [2] is reported as 2.38 ± 0.15 h and the “total protein half-life in vivo” value [3] is reported as 2.3185 ± 0.00041 h. The “total protein half-life in vivo” value [4] was 3.35 ± 0.57 h, the “total protein half-life in vivo” value [5] was 2.62 ± 0.24 h and the “total protein half-life in vivo” value [6] was 2.87 ± 0.15 h. For the same sequence, the “total protein half-life in vivo” value [7] was 4.72 ± 0.27 h, the “total protein half-life in vivo” value [12] was 7.87 ± 0.72 h and the “total protein half-life in vivo” value [8] was 2.56 ± 0.092 h. The “total protein half-life in vivo” value [9] was 3.65 ± 0.4 h, the “total protein half-life in vivo” value [10] was 5.341 ± 0.022 h and the “total protein half-life in vivo” value [11] was 9.54 ± 0.88 h.
In the case of “MIKHLVAPLVFTSLILTGCQSPQGKFTPEQVAAMQSYGFTESAGDWSLGLSDAILFAKNDYKLLPESQQQIQTMAAKLASTGLTHARMDGHTDNYGEDSYNEGLSLKRANVVADAWAMGGQIPRSNLTTQGLGKKYPIASNKTAQGRAENRRVAVVITTP”, the “total protein half-life in vivo” value [1] is reported as 1.39 h, the “total protein half-life in vivo” value [6] is reported as 0.967 h and the “total protein half-life in vivo” value [8] is reported as 1.84 h. For the same sequence, the “total protein half-life in vivo” value [10] was 1.9 h and the “total protein half-life in vivo” value [11] was 4.97 h.
In the case of “MTQLAIGKPAPLGAHYDGQGVNFTLFSAHAERVELCVFDANGQEHRYDLPGHSGDIWHGYLPDARPGLRYGYRVHGPWQPAEGHRFNPAKLLIDPCARQIDGEFKDNPLLHAGHNEPDYRDNAAIAPKCVVVVDHYDWEDDAPPRTPWGSTIIYEAHVKGLTYLHPEIPVEIRGTYKALGHPVMINYLKQLGITALELLPVAQFASEPRLQRMGLSNYWGYNPVAMFALHPAYACSPETALDEFRDAIKALHKAGIEVILDIVLNHSAELDLDGPLFSLRGIDNRSYYWIREDGDYHNWTGCGNTLNLSHPAVVDYASACLRYWVETCHVDGFRFDLAAVMGRTPEFRQDAPLFTAIQNCPVLSQVKLIAEPWDIAPGGYQVGNFPPLFAEWNDHFRDAARRFWLHYDLPLGAFAGRFAASSDVFKRNGRLPSAAINLVTAHDGFTLRDCVCFNHKHNEANGEENRDGTNNNYSNNHGKEGLGGSLDLVERRRDSIHALLTTLLLSQGTPMLLAGDEHGHSQHGNNNAYCQDNQLTWLDWSQASSGLTAFTAALIHLRKRIPALVENRWWEEGDGNVRWLNRYAQPLSTDEWQNGPKQLQILLSDRFLIAINATLEVTEIVLPAGEWHAIPPFAGEDNPVITAVWQGPAHGLCVFQR”, the “total protein half-life in vivo” value [1] is reported as 5.66 ± 0.38 h, the “total protein half-life in vivo” value [2] is reported as 5.35 ± 0.093 h and the “total protein half-life in vivo” value [3] is reported as 5.23 ± 0.074 h. For the same sequence, the “total protein half-life in vivo” value [4] was 6.01 ± 0.45 h, the “total protein half-life in vivo” value [5] was 5.62 ± 0.72 h and the “total protein half-life in vivo” value [6] was 3.31 ± 0.7 h. The “total protein half-life in vivo” value [7] was 5.47 ± 0.28 h, the “total protein half-life in vivo” value [12] was 10.5 ± 0.48 h and the “total protein half-life in vivo” value [8] was 5.46 ± 0.36 h. The “total protein half-life in vivo” value [9] was 10.2 ± 0.7 h, the “total protein half-life in vivo” value [10] was 6.42 ± 0.68 h and the “total protein half-life in vivo” value [11] was 11.6 ± 1.6 h.

Source: the supplement of paper PMC11246515
